Residue numbers refer to the chain shown, from its start.
B1: CHI9: Chalcone isomerase from Roseburia sp. OM02-15, access no. WP_118702262.1 (protein)
chain: GEITYQPLRSLIYVDCVKEEYRHKLQHWLYYYHAPESIAKFEPWVTKYAFYNALPTPPQGERFGTYRMQLTEHYWMVNPMSQESLVNSLNEYFPIDAMIWQGTLPENAKEDGFMADGEAARASGGDNGCPPFIFAFLPIFWEQDLKGAGRTMVDGPNYRWQFLVSYPEGHKEDGDQWMMNEVLPAFAAMPEVTRMMTSKVKKEINNCHMDRCVEMWFDGPEEWYHCAVENAASFKKPEWAEYDNFPYLRPQFQFASLFLTDIATSDNLKQYRGYLPMR
modifications: Roseburia sp. OM02-15
B2: CHIera: Chalcone isomerase from Eubacterium ramulus (protein, listed as Eubacterium ramulus)
chain: ADFKFEPMRSLIYVDCVSEDYRPKLQRWIYKVHIPDSISQFEPYVTKYAFYPSFPIPPQGDRFGYARMQLTEHHWLVSDLDPRLEIKAIAETFPMDVLVWQGQIPAAAHTDAQIDSDGDAGNAARKSNNAEGNPFIFAFLPMWWEKDLKGKGRTIEDGANYRFNMTIGFPEGVDKAEGEKWLFEKVVPILQAAPECTRVLASAVKKDINGCVMDWVLEIWFENQSGWYKVMVDDMKALEKPSWAQQDAFPFLKPYHNVCSAAVADYTPSNNLANYRGYITMR
B3: CHIera Mut1: Chalcone isomerase variant 1 from Eubacterium ramulus, genetically engineered (protein, listed as Eubacterium ramulus)
chain: MADFKFEPMRSLIYVDCVSEDYRPKLQRWIYKVHIPDSISKFEPYVTKYAFYPSFPIPPQGDRFGYARMQLTEHHWLVSELDPRLEINAIAETFPMDVLVWQGQIPAAAHTDAQIDSDGDAGRAAGKSNNAEGNPFIFAFLPMWWEKDLKGKGRTIEDGANYRFNMTIGFPEGVDKAEGEKWLFEKVVPILQAAPECTRVLASAVKKDINGCVMDWVLEIWFENQSGWYKVMVDDMKALEKPSWAQQDAFPFLKPYHNVCSAAVADYTPSNNLANYRGYITMR
B4: CHIera Mut8: Chalcone isomerase variant 8 from Eubacterium ramulus, genetically engineered (protein, listed as Eubacterium ramulus)
chain: B3 chain with E80P, R123E, G126R
B5: CHIera Mut5: Chalcone isomerase variant 5 from Eubacterium ramulus, genetically engineered (protein, listed as Eubacterium ramulus)
chain: B3 chain with E80P, G126K
B6: CHIera Mut13: Chalcone isomerase variant 13 from Eubacterium ramulus, genetically engineered (protein, listed as Eubacterium ramulus)
chain: B3 chain with E80P, G122D, R123D, G126R
B7: CHIera Mut6: Chalcone isomerase variant 6 from Eubacterium ramulus, genetically engineered (protein, listed as Eubacterium ramulus)
chain: B3 chain with K41N, N88R, R123D, G126R
B8: CHIera Mut3: Chalcone isomerase variant 3 from Eubacterium ramulus, genetically engineered (protein, listed as Eubacterium ramulus)
chain: B3 chain with K41N, N88K

Assay: Specific activity of purified CHI, absorbance decrease at 384 nm, hesperetin chalcone
Assay type: biochemical
Conditions: purified CHI in 50 mM PBS, 100 μM substrate, 25° C.
Procedure: (§1) E. coli BL21 (DE3) cells containing one of the pET28b plasmids from Table 2 or Table 3 were used to inoculate 1 L LB medium at OD of 0.1. Cells were incubated at 37° C., 250 rpm until the OD reached 0.4-0.6 and induced by supplementing with 0.1 mM IPTG. After protein expression at 28° C., 250 rpm for 16 h, the cells were harvested by centrifugation at 4,000×g for 15 min. The harvested cells were lysed with 0.5 mg/mL lysozyme (Sigma-Aldrich), 0.4 U/mL Benzonase (Sigma-Aldrich) and BugBuster (Merck) at room temperature for 0.5 h to obtain a crude cell extract. The crude extract was centrifuged at 10,000×g for 30 min to remove the pellet. Recombinant proteins were purified by Ni-affinity chromatography (GE Healthcare). The supernatant of the crude extract was loaded on the column with 20 mM imidazole. The column was washed by 5 column volumes of 30 mM imidazole with 20 mM PBS (pH 7.4) and 500 mM NaCl. The target proteins were eluted by 150 mM imidazole with 20 mM PBS (pH 7.4) and 500 mM NaCl. Buffer exchange with 50 mM PBS (pH 7.5) was achieved by ultrafiltration with Amicon Ultra-15 (Merck). The activity of the respective purified enzyme was determined by measuring the absorbance decrease at 384 nm in the reaction mix (CHI in 50 mM PBS with 100 μM of either naringenin chalcone, hesperetin chalcone, eriodictyol chalcone, homoeriodictyol chalcone or 4-O-methyl butein at 25° C.).

Molecule | Specific activity, Hesperetin chalcone
B1 | 43.0
B2 | 31.5
B3 | 93.2
B4 | 83.9
B5 | 4.5
B6 | 107.1
B7 | 30.3
B8 | 55.1

Assay: Specific activity of purified CHI, absorbance decrease at 384 nm, eriodictyol chalcone
Assay type: biochemical
Conditions: purified CHI in 50 mM PBS, 100 μM substrate, 25° C.
Procedure: as §1

Molecule | Specific activity, Eriodictyol chalcone
B1 | 69.7
B2 | 90.7
B3 | 59.5
B4 | 49.0
B5 | 13.5
B6 | 28.0
B7 | 52.4
B8 | 39.2

Assay: Specific activity of purified CHI, absorbance decrease at 384 nm, naringenin chalcone
Assay type: biochemical
Conditions: purified CHI in 50 mM PBS, 100 μM substrate, 25° C.
Procedure: as §1

Molecule | Specific activity, Naringenin chalcone
B1 | 22.7
B2 | 270.0
B3 | 32.6
B4 | 25.6
B5 | 8.0
B6 | 28.0
B7 | 17.1
B8 | 16.7

Assay: Specific activity of purified CHI, absorbance decrease at 384 nm, 4-O-methyl butein
Assay type: biochemical
Conditions: purified CHI in 50 mM PBS, 100 μM substrate, 25° C.
Procedure: as §1

Molecule | Specific activity, 4-O-methyl butein
B1 | 0.4
B2 | 0.1
B3 | 0.4
B4 | 0.5
B5 | 0.1
B6 | 1.4
B7 | 0.4
B8 | 0.3

Assay: Specific activity of purified CHI, absorbance decrease at 384 nm, homoeriodictyol chalcone
Assay type: biochemical
Conditions: purified CHI in 50 mM PBS, 100 μM substrate, 25° C.
Procedure: as §1

Molecule | Specific activity, Homoeriodctiol chalcone
B1 | 10.4
B2 | 44.5
B3 | 23.7
B4 | 21.2
B5 | 8.8
B6 | 33.6
B7 | 20.0
B8 | 13.0
